According to publication doi:10.1101/2021.11.20.466133:

B1: dsDNA 50mer (dsDNA)
DNA 1: GGATACGTAACAACGCTTATGCATCGCCGCCGCTACATCCCTGAGCTGAC
DNA 2: GTCAGCTCAGGGATGTAGCGGCGGCGATGCATAAGCGTTGTTACGTATCC
B2: HLDNA (synthetic Holliday junction) (structured_DNA)
DNA 1: ATCGATAGTCTCTAGACAGCATGTCCTAGCAAGCCAGAATTCGGCAGCGT
DNA 2: GACGCTGCCGAATTCTGGCTTGCTAGGACATTCTTTGCCCACGTTGACCC
DNA 3: GGGTCAACGTGGCAAAGAATGTCCTACGTCCGATACGGATAATCGCCAT
DNA 4: ATGGCGATTATCCGTATCGGACGTCGGACATGCTGTCTAGAGACTATCGA

Biological target: T1, MsDisA (Mycobacterium smegmatis mc2155, UniProt A0R564 1-372)
T1 sequence: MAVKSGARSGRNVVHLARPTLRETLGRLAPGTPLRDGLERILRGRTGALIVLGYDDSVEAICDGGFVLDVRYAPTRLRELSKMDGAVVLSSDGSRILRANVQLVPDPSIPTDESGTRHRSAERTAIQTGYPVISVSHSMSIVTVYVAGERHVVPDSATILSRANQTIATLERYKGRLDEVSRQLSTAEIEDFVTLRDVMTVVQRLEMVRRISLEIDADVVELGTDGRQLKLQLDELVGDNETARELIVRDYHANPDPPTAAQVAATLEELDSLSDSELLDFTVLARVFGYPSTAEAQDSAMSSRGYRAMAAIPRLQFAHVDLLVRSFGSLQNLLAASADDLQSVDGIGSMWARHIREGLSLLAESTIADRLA
Assay: EMSA

Binder	binding result
B1	no binding
B2	no binding
